The record followed here is patent US20190119348A1, “PARATHYROID HORMONE RECEPTOR 1 ANTAGONIST AND INVERSE AGONIST POLYPEPTIDES AND METHODS OF THEIR USE” (The General Hospital Corporation, priority 2016, published 2019).

Numbering of substitutions follows the chain as printed. Where a SMILES comes first, the peptide text is derived from it. Where no end group is shown, it is not given here. [ ]: non-standard residue; d: D form. Nle = CCCC[C@H](N)C(=O)O

One experiment concerns the target T1, endogenous hPTHR1 (Homo sapiens, UniProt Q03431).
T1 construct: Saos-2, in which is endogenously expressed the hPTHR1; endogenous in cells
T1 sequence (Q03431 27-593): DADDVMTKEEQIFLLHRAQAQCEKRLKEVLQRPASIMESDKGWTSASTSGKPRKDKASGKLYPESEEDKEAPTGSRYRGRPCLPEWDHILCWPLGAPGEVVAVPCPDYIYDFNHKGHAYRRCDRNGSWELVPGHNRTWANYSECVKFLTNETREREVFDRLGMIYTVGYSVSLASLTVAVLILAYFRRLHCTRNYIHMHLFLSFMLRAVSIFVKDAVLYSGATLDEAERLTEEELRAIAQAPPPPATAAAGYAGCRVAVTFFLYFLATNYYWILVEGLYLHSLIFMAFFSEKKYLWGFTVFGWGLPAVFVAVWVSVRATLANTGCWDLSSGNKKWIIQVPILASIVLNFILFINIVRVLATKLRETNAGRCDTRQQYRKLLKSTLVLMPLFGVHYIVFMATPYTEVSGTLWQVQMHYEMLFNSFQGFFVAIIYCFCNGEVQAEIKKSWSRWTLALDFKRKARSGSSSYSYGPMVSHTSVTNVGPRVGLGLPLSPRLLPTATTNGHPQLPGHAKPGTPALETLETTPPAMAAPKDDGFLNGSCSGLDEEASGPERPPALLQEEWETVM
Description: Antagonism of PTH(1-34)- and PTHrP(1-36)-induced cAMP response (GloSensor) in SGS-72 cells. The note with it: IC50 PTH(1-34) (Table 6, nanomolar value), antagonist pre-treatment 15 minutes, PTH(1-34) 0.3 nM. The format is cell-based. The protocol:
cAMP signaling was assessed in the HEK293-derived or SaOS2-derived cell lines stably expressing the luciferase-based GloSensorTM cAMP reporter ([…] al., Paper presented at: Novel Signaling Mechanisms and Bone Cell Biology 2014; Binkowski et al., Methods in molecular biology. 756:263-271). HEK-293 cells were further transfected to stably express the hPTHR1, hPTHR1-H223R, or hPTHR1-T410P. The cells were seeded into 96-well white plates and were assayed 24 to 48 hours post-confluency. Assays were performed at room temperature in CO2-independent culture media (Life Technologies, Corp., Carlsbad, Calif.) containing 0.1% BSA (CIDB). The cells were pre-loaded with luciferin (0.5 mM in CIDB) for 15 minutes, then PTH peptides were added at varying concentrations. cAMP-dependent luminescence was measured at two-minute intervals using a PerkinElmer Envision plate reader. The time at which maximum luminescence (cps) observed with agonist alone, typically at 10-20 minutes after agonist addition, was used to obtain data from wells containing antagonist with or without agonist, to thus generate antagonist ligand dose-response curves. The resulting cps values were then plotted against ligand concentration using GraphPad Prism 7.0 software and a four-parameter logistics curve fitting equation, which yielded parameters of inhibitory potency (pIC50). Pharmacological properties of the ligands were assessed in cells expressing the PTHR1 and the GloSensorTM cAMP reporter. The assays used GP-2.3 cells, derived from HEK293 cells by stable transfection with the hPTHR1 and GloSensorTM, as well as SGS-72 cells, which are derived from the human osteosarcoma cell line, Saos-2, in which is endogenously expressed the hPTHR1, by stable transfection with GloSensorTM. Binding of representative polypeptides to the PTHR1 was assessed in GP-2.3 cells by radioligand competition methods (FIGS. 1A and 1B, Table 3). […] In Table 5, antagonist assays were performed in SGS-72 cells (SaOS2 cells with stable GloSensorTM cAMP reporter) at room temperature. […] The mean (±sem) concentration of antagonist that inhibited the maximum agonist-induced response observed in the absence of antagonist (at 40 minutes) is reported in units of -log M (pIC50), and the corresponding nanomolar value is shown below each pIC50 value. Data are means of the number of seven experiments. The PTH(1-34)-induced maximum luminescence was 500,000 cps and the basal was 5,000 cps. TMR indicates Lys13 modified at epsilon amino function with TMR. The data are illustrated in FIG. 7A. […] Date are means (±SEM) of the number of separate experiments indicated by n.

The next experiment concerns the target hPTHR1-H223R (human) (UniProt Q03431). Put plainly: cell-based or functional assay.
The target in experiment [1] is human parathyroid hormone receptor 1 (hPTHR1) (human) (UniProt Q03431). Description: cell-based or functional assay.
In another experiment the target is T2, human PTHR1-H223R (Homo sapiens, UniProt Q03431, H223R).
T2 construct: expressed in transfected cells; host or cells: GHR-10 (HEK-293 stably expressing GloSensor and PTHR1-H223R)
T2 sequence (Q03431 27-593 H223R): T1 sequence (Q03431 27-593) with H197R
Description: Inverse agonism on basal cAMP signaling in GHR-10 cells. It is filed as cell-based. The note with it: GHR-10 cells, from AUC, representative experiment. The procedure:
cAMP signaling was assessed in the HEK293-derived or SaOS2-derived cell lines stably expressing the luciferase-based GloSensor™ cAMP reporter (Hattersley et al., Paper presented at: Novel Signaling Mechanisms and Bone Cell Biology 2014; Binkowski et al., Methods in molecular biology. 756:263-271). HEK-293 cells were further transfected to stably express the hPTHR1, hPTHR1-H223R, or hPTHR1-T410P. The cells were seeded into 96-well white plates and were assayed 24 to 48 hours post-confluency. Assays were performed at room temperature in CO2-independent culture media (Life Technologies, Corp., Carlsbad, Calif.) containing 0.1% BSA (CIDB). The cells were pre-loaded with luciferin (0.5 mM in CIDB) for 15 minutes, then PTH peptides were added at varying concentrations. cAMP-dependent luminescence was measured at two-minute intervals using a PerkinElmer Envision plate reader. The time at which maximum luminescence (cps) observed with agonist alone, typically at 10-20 minutes after agonist addition, was used to obtain data from wells containing antagonist with or without agonist, to thus generate antagonist ligand dose-response curves. The resulting cps values were then plotted against ligand concentration using GraphPad Prism 7.0 software and a four-parameter logistics curve fitting equation, which yielded parameters of inhibitory potency (pIC50).
These experiments were performed in HEK-293 cells stably transfected to express the GloSensor™ cAMP reporter along with a constitutively active mutant human PTHR1. The HEK-293 cells stably expressing GloSensor™ cAMP reporter along with a constitutively active mutant human PTHR1-H223R are GHR-10 cells. The HEK-293 cells stably expressing GloSensor™ cAMP reporter along with a constitutively active mutant human PTHR1-T410P are GTP-4 cells. The HEK-293 cells stably expressing GloSensor™ cAMP reporter along with a WT-PTHR1 are GP-2.3 cells. GP-2.3 cells were used as control. […] Effects on basal cAMP signaling over time were assessed during periods of direct ligand addition (FIGS. 15A-15F). The measurements were performed by recording GloSensor™ luminescence as counts per second (cps) using a PerkinElmer Envision plate reader. The data are illustrated in FIGS. 15A-15F. Data are from triplicate wells (means±SEM) of a single experiment representative of two others.
Persistence of the antagonist/inverse agonist effects (prolonged action) as follows. Effects of eight peptides on basal and PTH(1-34)-stimulated cAMP signaling by PTHR-H223R were assessed in GHR-10 cells (HEK-293-derived cells stably expressing glosensor cAMP reporter and PTHR1-H223R). Time courses of changes in cAMP levels were recorded in three consecutive phases:
1) after initial addition of a candidate antagonist/inverse agonist (1×10^−6 M-1×10^−9 M) to cells pre-loaded for […] with luciferin (left column);
2) after removal of unbound inverse agonist by extensive wash-out with buffer and replenishment with fresh luciferin-containing buffer (middle column); and
Control wells were treated with vehicle. GloSensor™ luminescence, as counts per second (cps), was recorded using a PerkinElmer Envision plate reader. Data are from duplicate wells (means±SEM) of a single experiment representative of two others. The results are illustrated in Table 7 and in FIGS. 16A-16C, 17A-17C, 18A-18C, 19A-19C, 20A-20C, 21A-21C, 22A-22C, and 23A-23C.
GHR10 cells were treated with vehicle or vehicle containing the indicated peptide for 24 minutes and cAMP-dependent luminescence was recorded at two-minute intervals. The cells were then washed to remove unbound ligand and media containing fresh luciferin was added, and cAMP luminescence was recorded for another 26 minutes. Percentage reduction was calculated from the area-under-the-curve (AUC) values derived from the time course plots using the equation: […]

In the case of `CCCC[C@H](NC(=O)[C@H](CC(C)C)NC(=O)[C@H](CCC(N)=O)NC(=O)[C@@H](N)[C@@H](C)CC)C(=O)N[C@@H](Cc1c[nH]cn1)C(=O)N[C@@H](CCC(N)=O)C(=O)N[C@@H](CCCNC(=N)N)C(=O)N[C@H](Cc1c[nH]c2ccccc12)C(=O)N[C@@H](CCCCN)C(=O)N[C@@H](Cc1c[nH]c2ccccc12)C(=O)N[C@H](C(=O)N[C@@H](CCC(N)=O)C(=O)N[C@@H](CC(=O)O)C(=O)N[C@@H](C)C(=O)N[C@@H](CCCNC(=N)N)C(=O)N[C@@H](CCCNC(=N)N)C(=O)N[C@@H](CCCNC(=N)N)C(=O)N[C@@H](C)C(=O)N[C@@H](Cc1c[nH]c2ccccc12)C(=O)N[C@@H](CC(C)C)C(=O)N[C@@H](Cc1c[nH]cn1)C(=O)N[C@@H](CCCCN)C(=O)N[C@@H](CC(C)C)C(=O)N[C@H](C(=O)N[C@@H](C)C(=O)N[C@@H](CCC(=O)O)C(=O)N[C@H](C(=O)N[C@@H](Cc1c[nH]cn1)C(=O)N[C@H](C(=O)N[C@@H](C)C(=O)N[C@@H](CCC(=O)O)C(=O)N[C@@H](Cc1ccc(O)cc1)C(N)=O)[C@@H](C)O)[C@@H](C)CC)[C@@H](C)CC)[C@@H](C)CC` [compound 1954, Nle8, dW12, W23, Y36-LA-PTH(5-36)] (H-IQL[Nle]HQR[dW]KWIQDARRRAWLHKLIAEIHTAEY-NH2; N-terminus assumed), the 50% inhibitory concentration (IC50) at endogenous hPTHR1 was 1.75 nM.

In the experiment with hPTHR1-H223R (human), “L11, dW12, W23-LA-PTH(5-36)-2003 (peptide)” returned a Reduction of basal cAMP, % vehicle; After ligand washout; GHR-10 cells of 64 % vehicle and a Reduction of basal cAMP, % vehicle; Ligand @ -6M; GHR-10 cells of 66 % vehicle. Besides, in experiment [1], the IC50, antagonism of PTH(1-34) (0.3 nM)-induced cAMP response, SGS-72 cells was determined as 2.57 nM and the pIC50, antagonism of PTH(1-34) (0.3 nM)-induced cAMP response, SGS-72 cells was 8.59 -log M.

As to “L11, dW12, W23-LA-PTH(7-36)-2001 (peptide)”, in the experiment with hPTHR1-H223R (human), the Reduction of basal cAMP, % vehicle; After ligand washout; GHR-10 cells stood at 65 % vehicle and the Reduction of basal cAMP, % vehicle; Ligand @ -6M; GHR-10 cells was found to be 66 % vehicle. For the same molecule, in experiment [1], the IC50, antagonism of PTH(1-34) (0.3 nM)-induced cAMP response, SGS-72 cells worked out at 2.08 nM and the pIC50, antagonism of PTH(1-34) (0.3 nM)-induced cAMP response, SGS-72 cells is 8.68 -log M.

For “LA-PTH(5-36)-2012 (IQLMHQRAKWIQDARRRAFLHKLIAEIHTAEI-NH2) [compound 2012]”, the “Reduction of basal cAMP, % vehicle, After ligand washout” value with human PTHR1-H223R (26 minutes after washout of unbound ligand) is −49 % vehicle. Also, in the experiment with human PTHR1-H223R (peptide 1×10^−6 M for 24 minutes), the “Reduction of basal cAMP, % vehicle, Ligand @ −6M” value is recorded as −15 % vehicle.

For “Nle8, L11, dW12, W23-LA-PTH(5-36)-1999 (peptide)”, in the experiment with hPTHR1-H223R (human), the Reduction of basal cAMP, % vehicle; After ligand washout; GHR-10 cells was found to be 62 % vehicle and the Reduction of basal cAMP, % vehicle; Ligand @ -6M; GHR-10 cells was determined as 63 % vehicle. In addition, in experiment [1], the IC50, antagonism of PTH(1-34) (0.3 nM)-induced cAMP response, SGS-72 cells is 2.75 nM and the pIC50, antagonism of PTH(1-34) (0.3 nM)-induced cAMP response, SGS-72 cells is 8.56 -log M.

Take “Nle8, L11, dW12, W23-LA-PTH(7-36)-1997 (peptide)”: in the experiment with hPTHR1-H223R (human), the Reduction of basal cAMP, % vehicle; After ligand washout; GHR-10 cells was determined as 71 % vehicle and the Reduction of basal cAMP, % vehicle; Ligand @ -6M; GHR-10 cells was determined as 70 % vehicle. In experiment [1], the IC50, antagonism of PTH(1-34) (0.3 nM)-induced cAMP response, SGS-72 cells amounted to 2.1 nM and the pIC50, antagonism of PTH(1-34) (0.3 nM)-induced cAMP response, SGS-72 cells was 8.68 -log M.

In the experiment with hPTHR1-H223R (human), “Nle8, dW12, W23-LA-PTH(7-36)-1992 (peptide)” came in with a Reduction of basal cAMP, % vehicle; After ligand washout; GHR-10 cells of 40 % vehicle and a Reduction of basal cAMP, % vehicle; Ligand @ -6M; GHR-10 cells of 51 % vehicle. In addition, in experiment [1], the IC50, antagonism of PTH(1-34) (0.3 nM)-induced cAMP response, SGS-72 cells amounted to 1.55 nM and the pIC50, antagonism of PTH(1-34) (0.3 nM)-induced cAMP response, SGS-72 cells was 8.81 -log M.

In the experiment with hPTHR1-H223R (human), dW12, W23-LA-PTH(7-36)-1990 (peptide) registered a Reduction of basal cAMP, % vehicle; After ligand washout; GHR-10 cells of 39 % vehicle and a Reduction of basal cAMP, % vehicle; Ligand @ -6M; GHR-10 cells of 50 % vehicle. In experiment [1], the IC50, antagonism of PTH(1-34) (0.3 nM)-induced cAMP response, SGS-72 cells worked out at 1.23 nM and the pIC50, antagonism of PTH(1-34) (0.3 nM)-induced cAMP response, SGS-72 cells is 8.91 -log M.
